Drawing on publication PMC4932452, this text covers other: band density of cell-free experiment (ratios to HSP90α), DMSO group set as 1.0 for one substance.

The target of this test is heat shock protein 70 (UniProt P0DMV8). Description: co-immunoprecipitation (anti-Flag beads) and western blot, band densitometry. The following applies: beads incubated with celastrol for 10 min, room temperature; n = 3; parent: est. 0.73; read off a plot.
Sequence of UniProt P0DMV8 (P0DMV8 whole entry): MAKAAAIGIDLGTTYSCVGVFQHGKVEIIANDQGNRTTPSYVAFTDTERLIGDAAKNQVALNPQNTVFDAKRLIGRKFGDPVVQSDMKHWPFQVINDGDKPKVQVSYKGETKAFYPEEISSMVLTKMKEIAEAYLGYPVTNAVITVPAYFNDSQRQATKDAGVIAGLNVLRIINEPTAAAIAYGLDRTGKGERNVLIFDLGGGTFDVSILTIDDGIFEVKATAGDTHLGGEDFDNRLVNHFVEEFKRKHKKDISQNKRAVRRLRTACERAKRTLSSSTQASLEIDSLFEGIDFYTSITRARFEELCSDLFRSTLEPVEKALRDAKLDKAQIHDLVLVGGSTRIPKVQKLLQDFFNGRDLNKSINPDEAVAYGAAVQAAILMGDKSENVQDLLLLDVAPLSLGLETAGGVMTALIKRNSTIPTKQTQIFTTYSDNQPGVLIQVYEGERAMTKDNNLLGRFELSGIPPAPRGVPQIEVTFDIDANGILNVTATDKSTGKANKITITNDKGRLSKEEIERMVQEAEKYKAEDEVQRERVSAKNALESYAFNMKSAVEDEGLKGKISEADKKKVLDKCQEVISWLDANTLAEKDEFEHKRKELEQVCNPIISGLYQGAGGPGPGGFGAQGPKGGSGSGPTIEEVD

“wild-type human HSP90α (Flag-tagged, from pCMV-tag2a) (from UniProt P07900-1) Y493G; K546D”: the other: band density of cell-free experiment (ratios to HSP90α), DMSO group set as 1.0 is 1.3.
